From patent US20250381307A1, “RETRO-AAV AND USE IN TREATING NEURODEGENERATIVE DISEASES” (priority 2023, published 2025) come the findings set out here.

In data set [1] the test system is striatonigral projection neurons (striatal MSNs). Description: Retrograde labeling of striatal MSNs after AAV injection into the SNr (EYFP+ cell counting). Conditions: for labeled striatonigral projection neurons (FIG. 2C): wild type mice, n=3, mean±SEM. It is filed as in vivo, mice. The source says:
(§1) Brain profiles of two epigenetic marks for enhancers and promoters, monomethylation of histone H3 lysine 4 (H3K4me1) and acetylation of histone H3 lysine 27 (H3K27ac) were checked and approximately 2 kilobase-long sequences around the transcriptional start site (TSS) that have high levels of H3K4me1 and/or H3K27ac were identified in mouse brain. Homologous sequences at equivalent positions of the human genome were then cloned onto an AAV backbone, and the activity of the homologous sequences in directing reporter expression was tested in mice after injections of AAVs into the SNr (FIG. 3A-C, TABLE 3).
(§2) Mice were anesthetized with sodium pentobarbital (Nembutal; 80 mg/kg, i.p.), and then placed into a stereotaxic device (KOPF). Eye cream was applied on both corneas to avoid dehydration. The skull above the targeted areas was thinned with a dental drill and carefully removed. Injections were conducted with a 10 μL syringe connected to a 33-Gauge needle (Neuros; Hamilton), using a microsyringe pump (Legato 130, KD Scientific). A total volume of 200 nL virus was injected into the SNr at a speed of 20 nL/min. The coordinates for the SNr were 3.4 mm posterior, 1.3 mm lateral, 4.8 mm ventral to the bregma.
(§3) Images were acquired using a confocal microscope (Carl Zeiss, LSM880) and an Axiolmager.Z1 microscope with apotome (Carl Zeiss). Brain structures were identified microscopically and in digital photos using a mouse brain atlas. To analyze the number of EYFP+ cells in the striatum, slices from rostral to caudal striatum were used. Every sixth section was analyzed, and numbers of EYFP+ cells were multiplied by six to acquire the approximate total number and mean number of cells per animal. Images were processed using ImageJ (NIH, USA), and final quantifications were independently performed manually by two blinded experimenters.

Another data set relates to substantia nigra. Description: Promoter activity level in substantia nigra after AAV injection into the SNr. It is filed as in vivo, mice. As to conditions: numbers of YFP-expressing neurons per animal.
Excerpt: as §1, §2, §3

For data set [2], the system named is MSNs in nucleus accumbens. Description: Retrograde labeling of accumbal MSNs after delivery into ventral pallidum or lateral hypothalamus. It is filed as in vivo, mouse. Conditions: stereotaxic delivery into ventral pallidum or lateral hypothalamus.

B1: G88P7: 896-bp shortened derivative of G88P2 promoter (SEQ ID NO: 46) (nucleic acid, listed as Homo sapiens)
DNA: ATGCCAAGCGTGGAAAGGCTGTCTTTTCCCTGGATGATGTATAACTAAGCAGGAGAGAGCTTCGAGTGGGTTCACCACATCAGCCACCACTCCTGCTTCTGAGCACAGGGTGCTCTCCTCTTGAGCTCAGCTTCTGCTTTTGCAGCCAAGCATTCTTGCTGCTGCTGCCTGCCTGCCCACCCGCCTGGGCTTGCAGCCCGCCACTTTACTTTCTCCAGCCCTGATACCAGCTGAGAAGTCTCCCTGCAGCTGCTAGTTCCTGCCCAGGACCATGTGTGTGGATGCTGCTTGGGAGAAGCGGGCACTTGCTCCTGGCACTGATCCCAGCTGAGTTTCTCCTGTTGATTTCTGGACCACTGATGCTGTTGCTGAGGAGGTATTTCCCGGCATCCCTCCCCCTGAGACACCGGCTAAGGACCAGCCTAAACGCAAGGTAACCTTCACCTCTTTCCCATGGGATTTTCCCCAGCTGGGATATCTCTGCTTTCTCCTGGAACTAGGTCCTCCAGCTGGCAACATATCTCTCTCTCTCTCTCTCTCTCTCTCTCTCTCTCTCTCTCTGTGTGTGTGTGTGTGTGTTGGGGGAGAAGAGGAGACTGTTTTAGGTATTGCTCTGTCCTAGGGCTTCCCCGATACCTGCTGAATCCAATGCAAAGTGGCCTTTCCCCTGGCTCTGGAGACATTTCCGAGGCAGGCACCTGTCATCTGCCACCCCCGTCCTCCTCCTCGAGCTCCCTTTCTCCCCCTCCCCCAGCCCATTATTCTGCTTCAGCCTTTTGTGTCAGTGGCAGAGGGCTGAAGGGATGTCTTTGCCCTTCTGGCAGGCAGGACAGTGTCAGGATGGACCGCGCTGCCAGAAGCCGACGCTAGCGAGGGAGGTGTGAAGAGTTGGCCAG
Consider B1, for which the “reporter-labeled MSNs by promoter (FIG. 4B)” value in data set [1] (SNr injection, n=3 mice, mean±SEM) worked out at 39460±7281. Moreover, the “Activity Level STR” value in data set [1] (striatum, numbers of YFP-expressing neurons per animal) is given as “++++ (>25k)”. Further, the “labeled MSNs per mouse” value in data set [1] (viruses expressing EYFP, injection into the SNr (FIG. 4B)) is listed as 3.95±0.73 ×104 MSNs per mouse. In addition, the “Activity Level SN” value with substantia nigra is “+ (<5k)”.

B2: AAV8R: AAV8 capsid with N385D, insertion of SEQ ID NO: 31 at position 588 and TS to IN mutation (SEQ ID NO: 1) (protein)
chain: MAADGYLPDWLEDNLSEGIREWWALKPGAPKPKANQQKQDDGRGLVLPGYKYLGPFNGLDKGEPVNAADAAALEHDKAYDQQLQAGDNPYLRYNHADAEFQERLQEDTSFGGNLGRAVFQAKKRVLEPLGLVEEGAKTAPGKKRPVEPSPQRSPDSSTGIGKKGQQPARKRLNFGQTGDSESVPDPQPLGEPPAAPSGVGPNTMAAGGGAPMADNNEGADGVGSSSGNWHCDSTWLGDRVITTSTRTWALPTYNNHLYKQISNGTSGGATNDNTYFGYSTPWGYFDFNRFHCHFSPRDWQRLINNNWGFRPKRLSFKLFNIQVKEVTQNEGTKTIANNLTSTIQVFTDSEYQLPYVLGSAHQGCLPPFPADVFMIPQYGYLTLNDGSQAVGRSSFYCLEYFPSQMLRTGNNFQFTYTFEDVPFHSSYAHSQSLDRLMNPLIDQYLYYLSRTQTTGGTANTQTLGFSQGGPNTMANQAKNWLPGPCYRQQRVSTTTGQNNNSNFAWTAGTKYHLNGRNSLANPGIAMATHKDDEERFFPSNGILIFGKQNAARDNADYSDVMLTSEEEIKTTNPVATEEYGIVADNLQRGNLADQDYTKTARQAATADVNSQGALPGMVWQNRDVYLQGPIWAKIPHTDGNFHPSPLMGGFGLKHPPPQILIKNTPVPADPPTTFNQSKLNSFITQYSTGQVSVEIEWELQKENSKRWNPEIQYTSNYYKSINVDFAVNTEGVYSEPRPIGTRYLTRNL
Take B2: the “labeled striatonigral projection neurons (FIG. 2C)” value in data set [1] (SNr injection) is given as 10092±463.9. Further, the “labeling of MSNs in nucleus accumbens” value in data set [2] is listed as “robust labeling”.

B3: AAV8R12: AAV8R capsid mutant V183E + N411S (SEQ ID NO: 13; SEQ ID NO: 59) (protein)
chain: MAADGYLPDWLEDNLSEGIREWWALKPGAPKPKANQQKQDDGRGLVLPGYKYLGPFNGLDKGEPVNAADAAALEHDKAYDQQLQAGDNPYLRYNHADAEFQERLQEDTSFGGNLGRAVFQAKKRVLEPLGLVEEGAKTAPGKKRPVEPSPQRSPDSSTGIGKKGQQPARKRLNFGQTGDSESEPDPQPLGEPPAAPSGVGPNTMAAGGGAPMADNNEGADGVGSSSGNWHCDSTWLGDRVITTSTRTWALPTYNNHLYKQISNGTSGGATNDNTYFGYSTPWGYFDFNRFHCHFSPRDWQRLINNNWGFRPKRLSFKLFNIQVKEVTQNEGTKTIANNLTSTIQVFTDSEYQLPYVLGSAHQGCLPPFPADVFMIPQYGYLTLNDGSQAVGRSSFYCLEYFPSQMLRTGNSFQFTYTFEDVPFHSSYAHSQSLDRLMNPLIDQYLYYLSRTQTTGGTANTQTLGFSQGGPNTMANQAKNWLPGPCYRQQRVSTTTGQNNNSNFAWTAGTKYHLNGRNSLANPGIAMATHKDDEERFFPSNGILIFGKQNAARDNADYSDVMLTSEEEIKTTNPVATEEYGIVADNLQRGNLADQDYTKTARQAATADVNSQGALPGMVWQNRDVYLQGPIWAKIPHTDGNFHPSPLMGGFGLKHPPPQILIKNTPVPADPPTTFNQSKLNSFITQYSTGQVSVEIEWELQKENSKRWNPEIQYTSNYYKSINVDFAVNTEGVYSEPRPIGTRYLTRN
As for B3, the “Labeling Efficiency in Striatonigral Pathway” value in data set [1] (AAV8R capsid mutants, numbers of labeled neurons per animal) is “+++ (10k-25k)”. The “labeled striatonigral projection neurons (FIG. 2C)” value in data set [1] (SNr injection) worked out at 16026±1654. For the same molecule, the “times EYFP positive / labeled MSNs compared to rAAV2-retro” value in data set [1] (after nigral delivery, hSyn-EYFP) is listed as 7.72±0.78 times. In addition, in data set [2], the “labeling of MSNs in nucleus accumbens” value is “robust labeling”.
